# Results taken from patent US20030232387A1.
# What was measured:
# [1] = biological target: human αEβ7 integrin expressed on cells (human) (UniProt P38570); assay: staining of K562 αEβ7 cells, 10 µg/ml; Ca^2+ and Mg^2+ (1 mM each)
# [2] = biological target: human αEβ7 integrin expressed on cells (human) (UniProt P38570); assay: staining of K562 αEβ7 cells, 5 µg/ml; Ca^2+, Mg^2+ and Mn^2+ (1 mM each)
# [3] = biological target: human αEβ7 integrin expressed on cells (human) (UniProt P38570); assay: staining of K562 αEβ7 cells, 2.5 µg/ml; Ca^2+ and Mg^2+ (1 mM each)
# [4] = biological target: E-cadherin-IgG fusion protein (human) (UniProt P12830); assay: cell adhesion assay; buffer with EDTA (5 mM)
# [5] = biological target: E-cadherin-IgG fusion protein (human) (UniProt P12830); assay: cell adhesion assay; buffer with Ca^2+ and Mg^2+ (1 mM each)
# [6] = biological target: E-cadherin-IgG fusion protein (human) (UniProt P12830); assay: cell adhesion assay; buffer with Ca^2+, Mg^2+ and Mn^2+ (1 mM each)
# human αEβ7 integrin expressed on cells (human), sequence (P38570 other isoform, or with tags, fused parts or gaps limits assumed, chain 1 of 2): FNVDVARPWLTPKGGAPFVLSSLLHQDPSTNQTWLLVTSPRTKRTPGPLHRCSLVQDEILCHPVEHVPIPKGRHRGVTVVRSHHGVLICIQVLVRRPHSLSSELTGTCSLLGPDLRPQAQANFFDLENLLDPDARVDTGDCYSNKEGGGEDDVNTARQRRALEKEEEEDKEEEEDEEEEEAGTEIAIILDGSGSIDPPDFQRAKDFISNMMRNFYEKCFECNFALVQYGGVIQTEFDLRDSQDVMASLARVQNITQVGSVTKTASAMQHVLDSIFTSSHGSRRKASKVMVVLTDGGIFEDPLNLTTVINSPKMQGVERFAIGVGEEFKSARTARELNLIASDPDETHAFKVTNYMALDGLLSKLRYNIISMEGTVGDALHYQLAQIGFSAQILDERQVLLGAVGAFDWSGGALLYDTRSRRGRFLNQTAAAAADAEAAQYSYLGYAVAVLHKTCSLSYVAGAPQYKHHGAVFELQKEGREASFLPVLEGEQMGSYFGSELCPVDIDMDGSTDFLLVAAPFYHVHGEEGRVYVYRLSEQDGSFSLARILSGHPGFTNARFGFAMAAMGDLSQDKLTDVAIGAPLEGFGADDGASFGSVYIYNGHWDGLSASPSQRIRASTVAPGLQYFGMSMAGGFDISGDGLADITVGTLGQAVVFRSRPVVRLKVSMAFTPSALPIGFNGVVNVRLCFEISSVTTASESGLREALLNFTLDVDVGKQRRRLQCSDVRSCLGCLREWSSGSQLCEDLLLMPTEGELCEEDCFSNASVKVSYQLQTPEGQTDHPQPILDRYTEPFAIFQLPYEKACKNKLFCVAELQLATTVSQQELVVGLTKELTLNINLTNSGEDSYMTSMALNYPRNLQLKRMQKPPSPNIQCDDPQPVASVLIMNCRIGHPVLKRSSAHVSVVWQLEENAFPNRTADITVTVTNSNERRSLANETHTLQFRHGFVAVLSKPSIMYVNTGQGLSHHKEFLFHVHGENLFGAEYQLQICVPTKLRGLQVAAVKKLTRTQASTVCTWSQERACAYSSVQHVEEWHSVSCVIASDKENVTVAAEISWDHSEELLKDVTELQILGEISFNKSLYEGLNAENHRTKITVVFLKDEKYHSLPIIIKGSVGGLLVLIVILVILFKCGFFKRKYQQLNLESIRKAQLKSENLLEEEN
# human αEβ7 integrin expressed on cells (human), sequence (chain, as listed by the source limits assumed, chain 2 of 2): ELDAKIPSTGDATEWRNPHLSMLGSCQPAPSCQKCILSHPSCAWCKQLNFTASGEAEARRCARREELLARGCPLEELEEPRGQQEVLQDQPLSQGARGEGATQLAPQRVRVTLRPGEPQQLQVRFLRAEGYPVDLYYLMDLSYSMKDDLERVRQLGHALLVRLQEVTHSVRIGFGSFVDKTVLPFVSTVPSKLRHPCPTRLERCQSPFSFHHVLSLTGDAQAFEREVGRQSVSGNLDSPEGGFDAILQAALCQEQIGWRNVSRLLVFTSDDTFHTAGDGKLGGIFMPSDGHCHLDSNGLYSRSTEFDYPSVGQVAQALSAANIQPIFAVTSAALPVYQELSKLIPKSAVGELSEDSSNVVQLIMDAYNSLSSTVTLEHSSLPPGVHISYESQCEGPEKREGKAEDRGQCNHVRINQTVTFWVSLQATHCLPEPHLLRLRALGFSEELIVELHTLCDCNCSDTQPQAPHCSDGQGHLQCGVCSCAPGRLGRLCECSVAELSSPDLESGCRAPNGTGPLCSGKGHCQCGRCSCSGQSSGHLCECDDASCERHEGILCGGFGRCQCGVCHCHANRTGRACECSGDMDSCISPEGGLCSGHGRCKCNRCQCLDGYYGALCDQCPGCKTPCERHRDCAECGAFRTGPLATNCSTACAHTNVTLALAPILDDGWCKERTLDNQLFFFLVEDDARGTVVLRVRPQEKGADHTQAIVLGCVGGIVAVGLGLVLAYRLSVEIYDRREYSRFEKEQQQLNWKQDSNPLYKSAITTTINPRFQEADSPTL
Substance,Binding (mean fluorescence intensity) [1] [MFI],Binding (mean fluorescence intensity) [2] [MFI],Binding (mean fluorescence intensity) [3] [MFI],% cells bound to immobilized E-cadherin [4] [%],% cells bound to immobilized E-cadherin [5] [%],% cells bound to immobilized E-cadherin [6] [%]
E-cadherin-IgG fusion protein (from UniProt P12830 155-699) (Fc fusion),75,100,< 25,,,
human αEβ7 integrin expressed on cells (from UniProt P38570 19-1179; P26010 20-798) (receptor),,,,< 10,40,60
